From patent publication US20170204182A1

B1: CD81K13 HC 04-hVH_1_69 / LC 05-hVK_1_39 (antibody, V domains shown)
VH: EVQLVESGGGLVQPGRSLRLSCTASGFNFKDSYLHWVRQAPGQGLEWMGRIDTGNGNVKFDPKFQGRVTITADESTSTAYMELSSLRSEDTAVYYCVPYGYGFHSWGQGTLVTVSS
VL: DIQMTQSPSSLSASVGDRVTITCRASENIYRTLAWYQQKPGKAPKLLIYAATTLASGVPSRFSGSGSGTDFTLTISSLQPEDFATYYCQHFWGTPWTFGQGTKVEIK
B2: CD81K13 HC 04-hVH_1_69 / LC 5b-hVK_1_39 (antibody, V domains shown)
VH: EVQLVESGGGLVQPGRSLRLSCTASGFNFKDSYLHWVRQAPGQGLEWMGRIDTGNGNVKFDPKFQGRVTITADESTSTAYMELSSLRSEDTAVYYCVPYGYGFHSWGQGTLVTVSS
VL: DIQMTQSPSSLSASVGDRVTITCRASENIYRTLAWYQQKPGKAPKLLIYGATTLADGVPSRFSGSGSGTDFTLTISSLQPEDFATYYCQHFWGTPWTFGQGTKVEIK
B3: CD81K13 HC 04-hVH_1_69 / LC 06-hVK_1_39 (antibody, V domains shown)
VH: EVQLVESGGGLVQPGRSLRLSCTASGFNFKDSYLHWVRQAPGQGLEWMGRIDTGNGNVKFDPKFQGRVTITADESTSTAYMELSSLRSEDTAVYYCVPYGYGFHSWGQGTLVTVSS
VL: DIQMTQSPSSLSASVGDRVTITCRASENIYRTLAWYQQKPGKAPKLLIYAATTLASGVPSRFSGSGSGTDFTLTISSLQPEDFGTYYCQHFWGTPWTFGQGTKVEIK
B4: CD81K13 HC 04-hVH_1_69 / LC 5b-hVK_1_39-GA (antibody, V domains shown)
VH: EVQLVESGGGLVQPGRSLRLSCTASGFNFKDSYLHWVRQAPGQGLEWMGRIDTGNGNVKFDPKFQGRVTITADESTSTAYMELSSLRSEDTAVYYCVPYGYGFHSWGQGTLVTVSS
VL: DIQMTQSPSSLSASVGDRVTITCRASENIYRTLAWYQQKPGKAPKLLIYGATTLADGVPSRFSGSGSGTDFTLTISSLQPEDFATYYCQHFWGTPWTFGQGTKVEIK
B5: CD81K13 HC 04-hVH_1_69 / LC 07-hVK_1_27 (antibody, V domains shown)
VH: EVQLVESGGGLVQPGRSLRLSCTASGFNFKDSYLHWVRQAPGQGLEWMGRIDTGNGNVKFDPKFQGRVTITADESTSTAYMELSSLRSEDTAVYYCVPYGYGFHSWGQGTLVTVSS
VL: DIQMTQSPSSLSASVGDRVTITCRASENIYRTLAWYQQKPGKVPKLLIYAATTLASGVPSRFSGSGSGTDFTLTISSLQPEDVGTYYCQKFWGTPWTFGQGTKVEIK
B6: CD81K04 HC GG-05-hVH_1_18 / LC JA_GG-10-hVK_4_1 (antibody, V domains shown)
VH: QVQLVQSGAEVKKPGASVKVSCKASGYTFSSSWMNWVRQAPGQGLEWMGRIYSGDGDAIYAQKLQGRVTMTTDTSTSTAYMELRSLRSDDTAVYYCAREGKTGDLLLRSWGQGTLVTVSS
VL: DIVMTQSPDSLAVSLGERATINCRASKSVSTSIYSYMHWYQQKPGQPPKLLIKYASYLESGVPDRFSGSGSGTDFTLTISSLQAEDVAVYYCEHSREFPFTFGQGTKLEIK
B7: CD81K04 HC JA_GG-14-hVH_1_69 / LC GG-04-hVK_4_1 (antibody, V domains shown)
VH: QVQLVQSGAEVKKPGSSVKVSCKASGYTFSSSWMNWVRQAPGQGLEWMGRIYSGDGDAIYNGKFKGKATITADESTSTAYMELSSLRSEDTAVYYCAREGKTGDLLLRSWGQGTLVTVSS
VL: DIVMTQSPDSLAVSLGERATINCKSSKSVSTSIYSYLAWYQQKPGQPPKLLIYYASTRESGVPDRFSGSGSGTDFTLTISSLQAEDVAVYYCQHSREFPYTFGQGTKLEIK
B8: CD81K04 HC JA_GG-14-hVH_1_69 / LC JA_GG-07-hVK_7_3 (antibody, V domains shown)
VH: QVQLVQSGAEVKKPGSSVKVSCKASGYTFSSSWMNWVRQAPGQGLEWMGRIYSGDGDAIYNGKFKGKATITADESTSTAYMELSSLRSEDTAVYYCAREGKTGDLLLRSWGQGTLVTVSS
VL: DIVLTQSPASLAVSPGQRATITCRASKSVSTSIYSYMHWYQQKPGQPPKLLIKYASNKDTGVPARFSGSGSGTDFTLTINPVEANDAANYYCLHSREFPYTFGQGTKLEIK

Each binder was assayed against T1, CD81 (UniProt P60033) (assay: cell ELISA).
T1 sequence (looked up): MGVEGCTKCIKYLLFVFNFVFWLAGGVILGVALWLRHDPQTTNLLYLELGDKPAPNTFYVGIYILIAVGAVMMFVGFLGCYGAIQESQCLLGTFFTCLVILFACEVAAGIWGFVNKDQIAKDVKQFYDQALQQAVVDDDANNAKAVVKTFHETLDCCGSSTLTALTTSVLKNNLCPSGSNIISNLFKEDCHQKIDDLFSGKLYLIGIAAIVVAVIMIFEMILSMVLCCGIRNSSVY

Binder | ELISA absorbance
B1 | 0.776
B2 | 0.428
B3 | 0.386
B4 | 0.403
B5 | 0.085
B6 | 0.841
B7 | 0.107
B8 | 0.107
